Common to all, as to experiment: cytokine release
Assay [1] deals with T1, ATM G2695V peptide on HLA-A*03:01 (human).
T1 peptide: LAGVVNLPK
The text has this: (§1) To confirm the specificity and activity of nucleic acid encoding TCRs against ATM and ARID1A, each of the codon optimized nucleic acids were introduced into donor T cells. The chimeric TCR-transduced T cells (TRBV9*01+TRAV14/DV4 chimeric TCR) were co-cultured with dendritic cells expressing wildtype ATM or mutated forms of ATM (G2695V, G2695A, G2695C, or G2695S). The chimeric TCR-transduced T cells (TRBV25-1+TRAV20 chimeric TCR) were co-cultured with dendritic cells expressing wildtype ARID1A or ARID1A H1960fs. After overnight incubation, the supernatant was assessed for production of interferon-gamma using an ELISA. […] See FIGS. 9A and 9B, respectively.

The target in assay [2] is T2, ATM G2695A peptide on HLA-A*03:01 (human).
T2 peptide: LAGAVNLPK
From the text: as §1

The target in assay [3] is T3, ATM G2695C peptide on HLA-A*03:01 (human).
T3 peptide: LAGCVNLPK
From the text: as §1

For assay [4], the target named is T4, ATM G2695S peptide on HLA-A*03:01 (human).
T4 peptide: LAGSVNLPK
From the text: as §1

For assay [5], the target named is T5, ATM wild type (glycine at 2695) peptide on HLA-A*03:01 (human).
T5 peptide: LAGGVNLPK
From the text: as §1

B1: TRBV9*01+TRAV14/DV4 TCR (TCR, V domains shown)
Valpha: AQKITQTQPGMFVQEKEAVTLDCTYDTSDQSYGLFWYKQPSSGEMIFLIYQGSYDEQNATEGRYSLNFQKARKSANLVISASQLGDSAMYFCAMREQGAQKLVFGQGTRLTINP
Vbeta: DSGVTQTPKHLITATGQQVTLRCSPRSGDLSVYWYQQSLDQGLQFLIQYYNGEERAKGNILERFSAQQFPDLHSELNLSSLELGDSALYFCASSAAVHYGYTFGSGTRLTVV
Regarding B1, the binding result in assay [1] is given as “recognises”; in assay [2] it was “recognises”; in assay [3], “recognises”; in assay [4] it was “recognises”; in assay [5], “no recognition”.
